What was measured:
fibronectin = fibronectin (UniProt P02751); test: SPR; plasminogen or fibronectin immobilised on CM5 chips by amine coupling (600 RU); recombinant enolase proteins 0-4000 nM injected at 30 uL/min for 180 s, 20 °C, dissociation 1000 s; 10 mM HEPES, 150 mM NaCl, 3 mM EDTA, 0.05% surfactant P20; Biacore X100
plasminogen = test: as above
[1] = target: Recombinant M. hyorhinis enolase K451L (Mycoplasma hyorhinis (strain HUB-1)) (UniProt P0DXB0)
[2] = target: Recombinant M. hyorhinis enolase K451L-K452L (Mycoplasma hyorhinis (strain HUB-1)) (UniProt P0DXB0)
[3] = target: Recombinant M. hyorhinis enolase K452L (Mycoplasma hyorhinis (strain HUB-1)) (UniProt P0DXB0)

fibronectin, sequence (P02751 32-2477): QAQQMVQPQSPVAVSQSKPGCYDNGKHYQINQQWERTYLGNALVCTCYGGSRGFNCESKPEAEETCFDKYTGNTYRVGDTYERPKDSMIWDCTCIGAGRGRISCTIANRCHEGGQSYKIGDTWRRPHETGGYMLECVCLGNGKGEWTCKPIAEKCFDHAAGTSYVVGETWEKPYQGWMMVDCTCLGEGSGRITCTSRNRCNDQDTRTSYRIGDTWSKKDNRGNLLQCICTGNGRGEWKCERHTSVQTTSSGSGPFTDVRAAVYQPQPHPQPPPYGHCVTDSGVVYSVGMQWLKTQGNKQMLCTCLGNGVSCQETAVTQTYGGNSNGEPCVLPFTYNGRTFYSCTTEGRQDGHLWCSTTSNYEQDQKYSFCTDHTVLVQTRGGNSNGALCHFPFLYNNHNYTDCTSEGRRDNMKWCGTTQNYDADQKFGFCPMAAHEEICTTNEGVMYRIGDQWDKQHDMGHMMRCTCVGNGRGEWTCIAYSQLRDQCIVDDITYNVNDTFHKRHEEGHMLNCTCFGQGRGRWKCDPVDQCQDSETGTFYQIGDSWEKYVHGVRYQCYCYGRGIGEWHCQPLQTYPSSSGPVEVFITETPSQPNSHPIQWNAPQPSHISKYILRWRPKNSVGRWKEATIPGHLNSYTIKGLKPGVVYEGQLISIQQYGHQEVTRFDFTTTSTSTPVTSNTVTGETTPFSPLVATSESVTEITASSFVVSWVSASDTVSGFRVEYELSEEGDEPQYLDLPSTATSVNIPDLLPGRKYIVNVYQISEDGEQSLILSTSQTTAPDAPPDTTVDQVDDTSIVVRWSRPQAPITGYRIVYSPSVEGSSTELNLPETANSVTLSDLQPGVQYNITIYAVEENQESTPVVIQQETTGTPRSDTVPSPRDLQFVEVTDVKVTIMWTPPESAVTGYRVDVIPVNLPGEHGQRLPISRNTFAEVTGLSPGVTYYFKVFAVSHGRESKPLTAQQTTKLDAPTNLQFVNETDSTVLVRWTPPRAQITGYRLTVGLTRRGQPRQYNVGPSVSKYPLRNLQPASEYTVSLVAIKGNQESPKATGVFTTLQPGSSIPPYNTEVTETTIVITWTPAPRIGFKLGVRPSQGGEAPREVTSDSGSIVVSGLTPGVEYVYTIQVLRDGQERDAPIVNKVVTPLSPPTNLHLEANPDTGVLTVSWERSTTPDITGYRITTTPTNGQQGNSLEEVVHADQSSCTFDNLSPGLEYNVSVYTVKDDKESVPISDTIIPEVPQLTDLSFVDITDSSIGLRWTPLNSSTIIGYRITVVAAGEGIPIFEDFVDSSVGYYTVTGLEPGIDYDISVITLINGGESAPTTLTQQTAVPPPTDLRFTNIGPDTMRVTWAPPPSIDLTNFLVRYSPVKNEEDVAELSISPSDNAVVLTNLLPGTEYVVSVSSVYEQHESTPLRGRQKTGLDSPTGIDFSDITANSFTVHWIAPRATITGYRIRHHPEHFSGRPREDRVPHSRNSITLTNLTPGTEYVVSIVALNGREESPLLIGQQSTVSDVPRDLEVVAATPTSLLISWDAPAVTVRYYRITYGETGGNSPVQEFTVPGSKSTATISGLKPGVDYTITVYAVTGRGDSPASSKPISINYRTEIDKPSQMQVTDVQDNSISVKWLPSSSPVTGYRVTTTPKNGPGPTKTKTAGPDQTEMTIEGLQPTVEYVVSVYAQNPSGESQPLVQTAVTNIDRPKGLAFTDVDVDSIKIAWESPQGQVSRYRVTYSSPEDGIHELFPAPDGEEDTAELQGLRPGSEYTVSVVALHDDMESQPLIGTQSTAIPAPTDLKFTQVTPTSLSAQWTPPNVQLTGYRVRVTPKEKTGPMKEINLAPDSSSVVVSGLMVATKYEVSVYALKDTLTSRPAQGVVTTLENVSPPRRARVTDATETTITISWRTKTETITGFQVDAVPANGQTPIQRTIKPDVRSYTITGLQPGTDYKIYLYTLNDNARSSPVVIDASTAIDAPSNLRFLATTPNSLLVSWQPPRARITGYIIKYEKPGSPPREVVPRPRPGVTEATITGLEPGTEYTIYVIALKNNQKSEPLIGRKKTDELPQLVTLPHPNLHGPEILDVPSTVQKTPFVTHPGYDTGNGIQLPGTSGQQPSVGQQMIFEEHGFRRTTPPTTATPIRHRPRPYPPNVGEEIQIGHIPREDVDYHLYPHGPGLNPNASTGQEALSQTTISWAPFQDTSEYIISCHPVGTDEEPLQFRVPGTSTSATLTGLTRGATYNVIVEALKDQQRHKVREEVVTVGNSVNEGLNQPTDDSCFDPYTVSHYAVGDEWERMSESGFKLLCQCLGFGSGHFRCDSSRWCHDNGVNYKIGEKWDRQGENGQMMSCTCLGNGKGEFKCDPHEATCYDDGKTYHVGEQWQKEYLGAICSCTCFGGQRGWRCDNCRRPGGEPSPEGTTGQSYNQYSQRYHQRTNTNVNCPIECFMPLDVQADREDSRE

Substance	Kd (fibronectin)	Kd (plasminogen)	plasmin activity (OD 405 nm) of plasminogen held in wells coated with the mutant, after tPA, compared with WT rEno-bound plasminogen (printed percent, seemingly the decrease) [1]	plasmin activity (OD 405 nm) of plasminogen held in wells coated with the mutant, after tPA, compared with WT rEno-bound plasminogen (printed percent, seemingly the decrease) [2]	plasmin activity (OD 405 nm) of plasminogen held in wells coated with the mutant, after tPA, compared with WT rEno-bound plasminogen (printed percent, seemingly the decrease) [3]
Recombinant M. hyorhinis enolase K451L (from UniProt P0DXB0 1-450) (enzyme)	77.9 nM	28 nM	–	–	–
Recombinant M. hyorhinis enolase K451L-K452L (from UniProt P0DXB0 1-450) (enzyme)	75.2 nM	59.4 nM	–	–	–
Recombinant M. hyorhinis enolase K452L (from UniProt P0DXB0 1-450) (enzyme)	70.5 nM	15.8 nM	–	–	–
Recombinant M. hyorhinis enolase, wild-type (from UniProt P0DXB0 1-450) (enzyme; other documents disagree on this pair)	14.3 nM	–	–	–	–
plasminogen (natural protein)	–	–	39.5%	50.1%	30.5%

Source: article PMC8951703
